This note sets out measurements from PMC11257509 (bioRxiv, 2024).

This data set deals with the molecule itself. Description: SEC.

B1: 10His-pG-Tn5(E54K, L372P) (enzyme, UniProt Q46731 1-476, looked up)
chain: MITSALHRAADWAKSVFSSAALGDPRRTARLVNVAAQLAKYSGKSITISSEGSKAMQEGAYRFIRNPNVSAEAIRKAGAMQTVKLAQEFPELLAIEDTTSLSYRHQVAEELGKLGSIQDKSRGWWVHSVLLLEATTFRTVGLLHQEWWMRPDDPADADEKESGKWLAAAATSRLRMGSMMSNVIAVCDREADIHAYLQDKLAHNERFVVRSKHPRKDVESGLYLYDHLKNQPELGGYQISIPQKGVVDKRGKRKNRPARKASLSLRSGRITLKQGNITLNAVLAEEINPPKGETPLKWLLLTSEPVESLAQALRVIDIYTHRWRIEEFHKAWKTGAGAERQRMEEPDNLERMVSILSFVAVRLLQLRESFTPPQALRAQGLLKEAEHVESQSAETVLTPDECQLLGYLDKGKRKRKEKAGSLQWAYMAIARLGGFMDSKRTGIASWGALWEGWEALQSKLDGFLAAKDLMAQGIKI
As for B1, the binding result was “binds”.
